T1: CD122-Fc fusion protein (UniProt P14784 27-240, limits assumed)
T1 construct: also called IL-2Rβ; not shown: Fc part
T1 sequence (looked up): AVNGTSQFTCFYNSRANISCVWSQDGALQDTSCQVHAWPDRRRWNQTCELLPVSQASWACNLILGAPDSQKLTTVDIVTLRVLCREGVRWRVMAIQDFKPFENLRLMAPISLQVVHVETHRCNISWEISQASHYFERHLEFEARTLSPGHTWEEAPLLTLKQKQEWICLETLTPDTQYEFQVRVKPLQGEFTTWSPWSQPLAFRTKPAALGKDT

T2: CD25-Fc fusion protein (UniProt P01589 22-213, limits assumed)
T2 construct: also called IL-2Rα; not shown: Fc part
T2 sequence (looked up): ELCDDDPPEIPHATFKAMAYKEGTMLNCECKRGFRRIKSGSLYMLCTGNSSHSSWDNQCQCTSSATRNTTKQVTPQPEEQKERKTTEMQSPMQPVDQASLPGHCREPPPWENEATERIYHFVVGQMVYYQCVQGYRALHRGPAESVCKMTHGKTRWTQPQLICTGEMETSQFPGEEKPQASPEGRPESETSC

B1: IL-2-IL-15 Chimera 1 (C125S) (ligand)
chain: APTSSSTKKTQLQLEHLLLDLQMILNGIQSMEIDATTFKFYMPKKATELKHLQCLEEELKPLEEVLNLAQSKNFHLRPRDLISNINVIVLELKGSETTFMCEYADETATIVEFLNRWITFSQSIISTLT
notes: Column headed 'Fusion Protein'; no fusion partner is stated for the assay
B2: IL-2-IL-15 Chimera 5 (E15K, C125S) (ligand)
chain: APTSSSTKKTQLQLKHLLLDLQMILNGIQSMEIDATTFKFYMPKKATELKHLQCLEEELKPLEEVLNLAQSKNFHLRPRDLISNINVIVLELKGSETTFMCEYADETATIVEFLNRWITFSQSIISTLT
notes: as for B1
B3: IL-2-IL-15 Chimera 11 (H16E, C125S) (ligand)
chain: APTSSSTKKTQLQLEELLLDLQMILNGIQSMEIDATTFKFYMPKKATELKHLQCLEEELKPLEEVLNLAQSKNFHLRPRDLISNINVIVLELKGSETTFMCEYADETATIVEFLNRWITFSQSIISTLT
notes: as for B1
B4: IL-2-IL-15 Chimera 15 (H16I, C125S) (ligand)
chain: APTSSSTKKTQLQLEILLLDLQMILNGIQSMEIDATTFKFYMPKKATELKHLQCLEEELKPLEEVLNLAQSKNFHLRPRDLISNINVIVLELKGSETTFMCEYADETATIVEFLNRWITFSQSIISTLT
notes: as for B1
B5: IL-2-IL-15 Chimera 17 (H16V, C125S) (ligand)
chain: APTSSSTKKTQLQLEVLLLDLQMILNGIQSMEIDATTFKFYMPKKATELKHLQCLEEELKPLEEVLNLAQSKNFHLRPRDLISNINVIVLELKGSETTFMCEYADETATIVEFLNRWITFSQSIISTLT
notes: as for B1
B6: IL-2-IL-15 Chimera 19 (D20T, C125S) (ligand)
chain: APTSSSTKKTQLQLEHLLLTLQMILNGIQSMEIDATTFKFYMPKKATELKHLQCLEEELKPLEEVLNLAQSKNFHLRPRDLISNINVIVLELKGSETTFMCEYADETATIVEFLNRWITFSQSIISTLT
notes: as for B1
B7: IL-2-IL-15 Chimera 21 (D20A, C125S) (ligand)
chain: APTSSSTKKTQLQLEHLLLALQMILNGIQSMEIDATTFKFYMPKKATELKHLQCLEEELKPLEEVLNLAQSKNFHLRPRDLISNINVIVLELKGSETTFMCEYADETATIVEFLNRWITFSQSIISTLT
notes: as for B1
B8: IL-2-IL-15 Chimera 23 (D20E, C125S) (ligand)
chain: APTSSSTKKTQLQLEHLLLELQMILNGIQSMEIDATTFKFYMPKKATELKHLQCLEEELKPLEEVLNLAQSKNFHLRPRDLISNINVIVLELKGSETTFMCEYADETATIVEFLNRWITFSQSIISTLT
notes: as for B1
B9: IL-2-IL-15 Chimera 25 (D20K, C125S) (ligand)
chain: APTSSSTKKTQLQLEHLLLKLQMILNGIQSMEIDATTFKFYMPKKATELKHLQCLEEELKPLEEVLNLAQSKNFHLRPRDLISNINVIVLELKGSETTFMCEYADETATIVEFLNRWITFSQSIISTLT
notes: as for B1
B10: IL-2-IL-15 Chimera 27 (N88A, C125S) (ligand)
chain: APTSSSTKKTQLQLEHLLLDLQMILNGIQSMEIDATTFKFYMPKKATELKHLQCLEEELKPLEEVLNLAQSKNFHLRPRDLISAINVIVLELKGSETTFMCEYADETATIVEFLNRWITFSQSIISTLT
notes: as for B1
B11: IL-2-IL-15 Chimera 29 (I92A, C125S) (ligand)
chain: APTSSSTKKTQLQLEHLLLDLQMILNGIQSMEIDATTFKFYMPKKATELKHLQCLEEELKPLEEVLNLAQSKNFHLRPRDLISNINVAVLELKGSETTFMCEYADETATIVEFLNRWITFSQSIISTLT
notes: as for B1
B12: IL-2-IL-15 Chimera 31 (I92G, C125S) (ligand)
chain: APTSSSTKKTQLQLEHLLLDLQMILNGIQSMEIDATTFKFYMPKKATELKHLQCLEEELKPLEEVLNLAQSKNFHLRPRDLISNINVGVLELKGSETTFMCEYADETATIVEFLNRWITFSQSIISTLT
notes: No fusion partner is stated for the assay; also called IL-2-IL-15 Chimera 29 (I92G, C125S)
B13: IL-2-IL-15 Chimera 33 (I92D, C125S) (ligand)
chain: APTSSSTKKTQLQLEHLLLDLQMILNGIQSMEIDATTFKFYMPKKATELKHLQCLEEELKPLEEVLNLAQSKNFHLRPRDLISNINVDVLELKGSETTFMCEYADETATIVEFLNRWITFSQSIISTLT
notes: No fusion partner is stated for the assay; also called IL-2-IL-15 Chimera 29 (I92D, C125S)
B14: IL-2-IL-15 Chimera 35 (I92E, C125S) (ligand)
chain: APTSSSTKKTQLQLEHLLLDLQMILNGIQSMEIDATTFKFYMPKKATELKHLQCLEEELKPLEEVLNLAQSKNFHLRPRDLISNINVEVLELKGSETTFMCEYADETATIVEFLNRWITFSQSIISTLT
notes: No fusion partner is stated for the assay; also called IL-2-IL-15 Chimera 29 (I92E, C125S)
B15: hIL-2 Mutein (K32E, F42C, V69C, C125S) (ligand)
chain: APTSSSTKKTQLQLEHLLLDLQMILNGINNYENPKLTRMLTCKFYMPKKATELKHLQCLEEELKPLEECLNLAQSKNFHLRPRDLISNINVIVLELKGSETTFMCEYADETATIVEFLNRWITFSQSIISTLT
notes: The description says F42C and V69C form a disulfide bond; Column headed 'Fusion Protein'; no fusion partner is stated for the assay
B16: hIL-2 Mutein (K32E, R38E, F42K, C125S) (ligand)
chain: APTSSSTKKTQLQLEHLLLDLQMILNGINNYENPKLTEMLTKKFYMPKKATELKHLQCLEEELKPLEEVLNLAQSKNFHLRPRDLISNINVIVLELKGSETTFMCEYADETATIVEFLNRWITFSQSIISTLT
notes: as for B1
B17: hIL-2 Mutein (R38N, L40T, C125S) (ligand)
chain: APTSSSTKKTQLQLEHLLLDLQMILNGINNYKNPKLTNMTTFKFYMPKKATELKHLQCLEEELKPLEEVLNLAQSKNFHLRPRDLISNINVIVLELKGSETTFMCEYADETATIVEFLNRWITFSQSIISTLT
notes: as for B1

Columns and labels:
[1] = biological target: T1, CD122-Fc fusion protein; experiment: BLI (Octet RED96); CD122-Fc on AHC biosensor, IL-2 mutein at 400 nM; set-up: unit not given here
Source text: (§1) Briefly, an CD25- or CD122-Fc fusion protein was loaded onto an anti-human IgG Fc capture (AHC) biosensor.

[2] = biological target: T2, CD25-Fc fusion protein; experiment: BLI (Octet RED96); CD25-Fc on AHC biosensor, IL-2 mutein at 400 nM; set-up: unit not given here
Source text: as §1

Row | Binder | Binding Response [1] | Binding Response [2]
1 | B1 | > 0.5 | < 0.05
2 | B2 | > 0.5 | < 0.05
3 | B3 | < 0.2 | < 0.05
4 | B4 | < 0.1 | < 0.05
5 | B5 | < 0.1 | < 0.05
6 | B6 | < 0.1 | < 0.05
7 | B7 | < 0.1 | < 0.05
8 | B8 | < 0.1 | < 0.05
9 | B9 | < 0.1 | < 0.05
10 | B10 | < 0.1 | < 0.05
11 | B11 | < 0.1 | < 0.05
12 | B12 | < 0.2 | < 0.05
13 | B13 | < 0.1 | < 0.05
14 | B14 | < 0.1 | < 0.05
15 | B15 | > 0.5 | < 0.05
16 | B16 | > 0.5 | < 0.05
17 | B17 | > 0.5 | < 0.05
